# Experimental data taken from paper PMC9352680, “A comprehensive thermodynamic model for RNA binding by the Saccharomyces cerevisiae Pumilio protein PUF4”.
# Changes are numbered by the printed parent chain. Names and notes keep the numbering of the source.
# T1: PUF4 RNA-binding domain (Saccharomyces cerevisiae, UniProt P25339 537-888)
# T1 sequence: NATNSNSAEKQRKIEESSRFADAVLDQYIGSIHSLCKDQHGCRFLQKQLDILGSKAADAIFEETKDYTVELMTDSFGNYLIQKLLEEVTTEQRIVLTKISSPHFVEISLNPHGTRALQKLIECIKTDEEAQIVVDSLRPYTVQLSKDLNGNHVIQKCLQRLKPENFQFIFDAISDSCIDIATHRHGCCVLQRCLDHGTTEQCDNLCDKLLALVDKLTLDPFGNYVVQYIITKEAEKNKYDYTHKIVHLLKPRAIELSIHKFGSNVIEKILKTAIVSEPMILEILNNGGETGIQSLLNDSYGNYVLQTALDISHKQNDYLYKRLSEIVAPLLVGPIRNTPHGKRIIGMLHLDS
# B1: Id_iii_S4_P4E.5_K4.1_C4.3_[C-2A]_H4.1_A4.1_F4.1_T4.2 (ssRNA)
# RNA: UUUGACAACUGAUCGUUCUUUCUUAUUGUAUAUUAGUUUCUUUCUCGAUCAGUUGUCUUU
# B2: Id_iii_S4_P4E.8_K4.4_C4.3_[T-1G]_H4.1_A4.2_F4.1_T4.2 (ssRNA)
# RNA: B1 RNA with A25C, U26G, A32U
# B3: Id_iii_S4_P4E.7_K4.3_C4.3_[C-2A]_H4.3_A4.1_F4.1_T4.2 (ssRNA)
# RNA: B1 RNA with U27A, G28C, U29A, A30C
# B4: Id_iii_S4_P4E.7_K4.3_C4.3_[C-2G]_H4.3_A4.1_F4.1_T4.2 (ssRNA)
# RNA: B1 RNA with A25G, U27A, G28C, U29A, A30C
# B5: Id_iii_S4_P4E.8_K4.4_C4.3_[T-3C]_H4.1_A4.2_F4.1_T4.2 (ssRNA)
# RNA: B1 RNA with U24C, A25C, A32U
# B6: Id_iii_S4_P4E.7_K4.3_C4.3_H4.3_A4.1_F4.1_T4.2_[T11C] (ssRNA)
# RNA: B1 RNA with A25C, U27A, G28C, U29A, A30C, U37C
# B7: Id_iii_S4_P4E.6_K4.2_C4.3_[T-1A]_H4.2_A4.1_F4.1_T4.2 (ssRNA)
# RNA: B1 RNA with A25C, U26A, G28A
# B8: Id_iii_S4_P4E.8_K4.4_C4.3_[C-2A]_H4.1_A4.2_F4.1_T4.2 (ssRNA)
# RNA: B1 RNA with A32U
# B9: Id_iii_S4_P4E.8_K4.4_C4.3_[C-2T]_H4.1_A4.2_F4.1_T4.2 (ssRNA)
# RNA: B1 RNA with A25U, A32U
# B10: Ic_S2_P3E.1_K3.1_C3.1_H3.1_A3.1_F3.1_[A8G]_T3.1 (ssRNA)
# RNA: UUUGAUUAAUAUGAUAUCGUUCUUUCUUGUAUAUGUUCUUUCUCGAUAUCAUAUUAAUCUUU
# B11: Id_iii_S2_P5E.7_K5.3_C5.3_[C-2A]_H5.3_A5.1_F5.1_T5.2 (ssRNA)
# RNA: UUUGAUUAAUAUGAUAUCGUUCUUUCUUAUACACUUAUUAUAUUCUUUCUCGAUAUCAUAUUAAUCUUU
# B12: Id_iii_S2_P5E.8_K5.4_C5.3_[C-2T]_H5.1_A5.2_F5.1_T5.2 (ssRNA)
# RNA: B11 RNA with A29U, A31U, C32G, A33U, C34A, U35A
# B13: Id_iii_S2_P5E.8_K5.4_C5.3_H5.1_A5.2_F5.1_T5.2_[A12T] (ssRNA)
# RNA: B11 RNA with A29C, A31U, C32G, A33U, C34A, U35A, A42U
# B14: Id_iii_S2_P5E.7_K5.3_C5.3_[T-1G]_H5.3_A5.1_F5.1_T5.2 (ssRNA)
# RNA: B11 RNA with A29C, U30G
# B15: Id_iii_S2_P5E.7_K5.3_C5.3_H5.3_A5.1_F5.1_T5.2_[A12T] (ssRNA)
# RNA: B11 RNA with A29C, A42U
# B16: Id_iii_S2_P5E.7_K5.3_C5.3_[T-1C]_H5.3_A5.1_F5.1_T5.2 (ssRNA)
# RNA: B11 RNA with A29C, U30C
# B17: Id_iii_S2_P5E.8_K5.4_C5.3_[C-2G]_H5.1_A5.2_F5.1_T5.2 (ssRNA)
# RNA: B11 RNA with A29G, A31U, C32G, A33U, C34A, U35A
# B18: Id_iii_S2_P5E.7_K5.3_C5.3_H5.3_A5.1_F5.1_T5.2_[T11C] (ssRNA)
# RNA: B11 RNA with A29C, U41C
# B19: Id_iii_S2_P5E.7_K5.3_C5.3_[T-1A]_H5.3_A5.1_F5.1_T5.2 (ssRNA)
# RNA: B11 RNA with A29C, U30A
# B20: Id_iii_S2_P5E.8_K5.4_C5.3_H5.1_A5.2_F5.1_T5.2_[A12G] (ssRNA)
# RNA: B11 RNA with A29C, A31U, C32G, A33U, C34A, U35A, A42G
# B21: Id_iii_S2_P5E.8_K5.4_C5.3_[T-3C]_H5.1_A5.2_F5.1_T5.2 (ssRNA)
# RNA: B11 RNA with U28C, A29C, A31U, C32G, A33U, C34A, U35A
# B22: Id_iii_S2_P5E.8_K5.4_C5.3_H5.1_A5.2_F5.1_T5.2_[A12C] (ssRNA)
# RNA: B11 RNA with A29C, A31U, C32G, A33U, C34A, U35A, A42C
# B23: Id_iii_S2_P5E.7_K5.3_C5.3_H5.3_A5.1_F5.1_T5.2_[A12C] (ssRNA)
# RNA: B11 RNA with A29C, A42C
# B24: Id_iii_S2_P5E.8_K5.4_C5.3_[T-3A]_H5.1_A5.2_F5.1_T5.2 (ssRNA)
# RNA: B11 RNA with U28A, A29C, A31U, C32G, A33U, C34A, U35A
# B25: Id_iii_S2_P5E.8_K5.4_C5.3_[C-2A]_H5.1_A5.2_F5.1_T5.2 (ssRNA)
# RNA: B11 RNA with A31U, C32G, A33U, C34A, U35A
# B26: Id_iii_S4_P3E.5_K3.1_C3.3_[C-2G]_H3.1_A3.1_F3.1_T3.2 (ssRNA)
# RNA: UUUGACAACUGAUCGUUCUUUCUUGUUGUAUAUAUAUUCUUUCUCGAUCAGUUGUCUUU
# B27: Id_iii_S4_P3E.7_K3.3_C3.3_H3.3_A3.1_F3.1_T3.2_[A10C] (ssRNA)
# RNA: B26 RNA with G25C, U27A, G28C, U29A, A30C, A36C
# B28: Id_iii_S4_P3E.6_K3.2_C3.3_[T-1C]_H3.2_A3.1_F3.1_T3.2 (ssRNA)
# RNA: B26 RNA with G25C, U26C, G28A
# B29: Id_iii_S4_P3E.9_K3.5_C3.3_[C-2T]_H3.1_A3.2_F3.2_T3.2 (ssRNA)
# RNA: B26 RNA with G25U, U31A, U33A
# B30: Id_iii_S4_P3E.8_K3.4_C3.3_H3.1_A3.2_F3.1_T3.2_[A10G] (ssRNA)
# RNA: B26 RNA with G25C, U31A, A36G
# B31: Id_iii_S4_P3E.7_K3.3_C3.3_[T-1A]_H3.3_A3.1_F3.1_T3.2 (ssRNA)
# RNA: B26 RNA with G25C, U26A, U27A, G28C, U29A, A30C
# B32: Id_iii_S4_P3E.8_K3.4_C3.3_[T-1C]_H3.1_A3.2_F3.1_T3.2 (ssRNA)
# RNA: B26 RNA with G25C, U26C, U31A
# B33: Id_iii_S4_P3E.9_K3.5_C3.3_[T-3G]_H3.1_A3.2_F3.2_T3.2 (ssRNA)
# RNA: B26 RNA with U24G, G25C, U31A, U33A
# B34: Id_iii_S4_P3E.5_K3.1_C3.3_[T-1A]_H3.1_A3.1_F3.1_T3.2 (ssRNA)
# RNA: B26 RNA with G25C, U26A
# B35: Id_iii_S4_P3E.9_K3.5_C3.3_H3.1_A3.2_F3.2_T3.2_[A10C] (ssRNA)
# RNA: B26 RNA with G25C, U31A, U33A, A36C
# B36: Id_iii_S4_P3E.7_K3.3_C3.3_[T-3A]_H3.3_A3.1_F3.1_T3.2 (ssRNA)
# RNA: B26 RNA with U24A, G25C, U27A, G28C, U29A, A30C
# B37: Id_iii_S4_P3E.6_K3.2_C3.3_[C-2G]_H3.2_A3.1_F3.1_T3.2 (ssRNA)
# RNA: B26 RNA with G28A
# B38: Id_iii_S4_P3E.9_K3.5_C3.3_[T-1A]_H3.1_A3.2_F3.2_T3.2 (ssRNA)
# RNA: B26 RNA with G25C, U26A, U31A, U33A
# B39: Id_iii_S4_P3E.6_K3.2_C3.3_H3.2_A3.1_F3.1_T3.2_[A10C] (ssRNA)
# RNA: B26 RNA with G25C, G28A, A36C
# B40: Id_iii_S4_P3E.7_K3.3_C3.3_[C-2G]_H3.3_A3.1_F3.1_T3.2 (ssRNA)
# RNA: B26 RNA with U27A, G28C, U29A, A30C
# B41: Id_iii_S2_P5E.9_K5.5_C5.3_H5.1_A5.2_F5.2_T5.2_[A12G] (ssRNA)
# RNA: UUUGAUUAAUAUGAUAUCGUUCUUUCUUCUUGUAAUAAAAUGUUCUUUCUCGAUAUCAUAUUAAUCUUU
# B42: Id_iii_S2_P5E.9_K5.5_C5.3_H5.1_A5.2_F5.2_T5.2_[A12T] (ssRNA)
# RNA: B41 RNA with G42U
# B43: Id_iii_S2_P5E.9_K5.5_C5.3_H5.1_A5.2_F5.2_T5.2_[A12C] (ssRNA)
# RNA: B41 RNA with G42C
# Molecular target: T1, PUF4 RNA-binding domain
# Test: Mg; RNA-MaP; 20 mM Na-HEPES pH 7.4, 30 mM KOAc, 0.75 mM MgCl2, 0.1% Tween-20, 5% glycerol, 0.1 mg/mL BSA, 2 mM DTT; 25 C; 0.0125-409.6 nM protein
# Details: tags: N-His6-TEV cleaved; C-SNAP kept, Cy3B-labelled; label: tethered on chip by stalled RNA polymerase
row,Binder,Kd
1,B1,0.43 nM
2,B2,1.14 nM
3,B3,91.7 nM
4,B4,1.75 nM
5,B5,0.631 nM
6,B6,> 2300 nM
7,B7,7.5 nM
8,B8,1.14 nM
9,B9,0.755 nM
10,UCUCUUUGUAGUCUUAUCUCUU (ssRNA) [Ib_S1_P5E.1_K5.1_C5.1_H5.1_A5.1_[T5G]_[A7C]_F5.1_T5.1],93.7 nM
11,UCUCUUGGUAUAUAUCUCUU (ssRNA) [Ia_S1_P3E.1_K3.1_C3.1_H3.1_[T1G]_A3.1_F3.1_T3.1],2290 nM
12,ACAAACACUACACUAUAUAACAAAC (ssRNA) [Id_iii_S3_P3E.7_K3.3_C3.3_[T-3A]_H3.3_A3.1_F3.1_T3.2],760 nM
13,ACAAACUCUUAUAUAUACAACAAAC (ssRNA) [Id_iii_S3_P3E.6_K3.2_C3.3_H3.2_A3.1_F3.1_T3.2_[T9C]],693 nM
14,UCUCUUUGUAGUUUUAUCUCUU (ssRNA) [Ib_S1_P5E.1_K5.1_C5.1_H5.1_A5.1_[T5G]_[A7T]_F5.1_T5.1],27.2 nM
15,ACAAACUCCUAUAUAUAUAACAAAC (ssRNA) [Id_iii_S3_P3E.6_K3.2_C3.3_[T-1C]_H3.2_A3.1_F3.1_T3.2],218 nM
16,ACAAACCCUUAUAUAUAUAACAAAC (ssRNA) [Id_iii_S3_P3E.6_K3.2_C3.3_[T-3C]_H3.2_A3.1_F3.1_T3.2],446 nM
17,B10,11.7 nM
18,ACAAACUUUUAUAUAUAUAACAAAC (ssRNA) [Id_iii_S3_P3E.6_K3.2_C3.3_[C-2T]_H3.2_A3.1_F3.1_T3.2],598 nM
19,B11,579 nM
20,B12,8.91 nM

row,Binder,Kd
1,B13,2.65 nM
2,B14,963 nM
3,B15,2160 nM
4,B16,838 nM
5,B17,15.4 nM
6,B18,1770 nM
7,B19,823 nM
8,B20,6.61 nM
9,B21,5.82 nM
10,B22,3.6 nM
11,B23,> 2300 nM
12,B24,8.09 nM
13,B25,40.3 nM
14,B26,1.77 nM
15,B27,611 nM
16,B28,33.1 nM
17,B29,34.5 nM
18,B30,14.2 nM
19,B31,137 nM
20,B32,2.97 nM

row,Binder,Kd
1,B33,25.8 nM
2,B34,1.71 nM
3,B35,308 nM
4,B36,364 nM
5,B37,20.4 nM
6,B38,48.5 nM
7,B39,131 nM
8,B40,0.724 nM
9,UCUCUUUGUAACAUUAUCUCUU (ssRNA) [Ib_S1_P5E.1_K5.1_C5.1_H5.1_A5.1_[T5A]_[T6C]_F5.1_T5.1],4.31 nM
10,ACAAACUCAACACUAUAUAACAAAC (ssRNA) [Id_iii_S3_P3E.7_K3.3_C3.3_[T-1A]_H3.3_A3.1_F3.1_T3.2],1780 nM
11,UCUCUUUGUACUGUUAUCUCUU (ssRNA) [Ib_S1_P5E.1_K5.1_C5.1_H5.1_A5.1_[T5C]_[A7G]_F5.1_T5.1],7.89 nM
12,UCUCUUUGUAAAAUUAUCUCUU (ssRNA) [Ib_S1_P5E.1_K5.1_C5.1_H5.1_A5.1_[T5A]_[T6A]_F5.1_T5.1],10.6 nM
13,ACAAACUCUACACUAUAUUACAAAC (ssRNA) [Id_iii_S3_P3E.7_K3.3_C3.3_H3.3_A3.1_F3.1_T3.2_[A10T]],922 nM
14,ACAAACUCCACACUAUUAGUACAAAC (ssRNA) [Id_iii_S3_P4E.7_K4.3_C4.3_[T-1C]_H4.3_A4.1_F4.1_T4.2],> 2300 nM
15,B41,189 nM
16,B42,158 nM
17,B43,146 nM
18,ACAAACUAUACACUAUAUAACAAAC (ssRNA) [Id_iii_S3_P3E.7_K3.3_C3.3_[C-2A]_H3.3_A3.1_F3.1_T3.2],32.5 nM
